Measurements published in patent US20200181261A1 (Bayer, published 2020).
Changes are numbered by the printed parent chain.

T1: human CEACAM19, full-length, on transfected HeLa cells (human, UniProt Q7Z692 33-300)
T1 construct: also called TPP-4186; HeLa human CEACAM19
T1 sequence: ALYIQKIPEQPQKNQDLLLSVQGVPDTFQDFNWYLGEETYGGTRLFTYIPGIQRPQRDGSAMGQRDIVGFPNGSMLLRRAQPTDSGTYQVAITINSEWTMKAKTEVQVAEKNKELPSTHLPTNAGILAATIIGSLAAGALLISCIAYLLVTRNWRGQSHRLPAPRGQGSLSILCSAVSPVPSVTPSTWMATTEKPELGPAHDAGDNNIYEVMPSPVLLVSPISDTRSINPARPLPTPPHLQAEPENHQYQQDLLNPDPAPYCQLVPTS

T2: human CEACAM6, extracellular (mature form), R&D Systems 3934-CM (human, UniProt P40199 35-320)
T2 construct: used biotinylated in some assays; also called TPP-1436; Recombinant human CEACAM6
T2 sequence: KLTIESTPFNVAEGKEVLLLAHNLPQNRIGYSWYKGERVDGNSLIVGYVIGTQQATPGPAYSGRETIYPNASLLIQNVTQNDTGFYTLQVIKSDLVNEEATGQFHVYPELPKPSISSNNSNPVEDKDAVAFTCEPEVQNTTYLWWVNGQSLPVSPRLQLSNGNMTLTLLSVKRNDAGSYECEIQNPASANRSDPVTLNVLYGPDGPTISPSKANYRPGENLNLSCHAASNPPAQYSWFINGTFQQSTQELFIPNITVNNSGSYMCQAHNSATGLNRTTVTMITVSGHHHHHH

T3: Macaca fascicularis CEACAM6, extracellular (mature form), obtained by Factor Xa cleavage of TPP-2443 (Macaca fascicularis)
T3 construct: used biotinylated in some assays; also called APP-319; Cynomolgus CEACAM6
T3 chain: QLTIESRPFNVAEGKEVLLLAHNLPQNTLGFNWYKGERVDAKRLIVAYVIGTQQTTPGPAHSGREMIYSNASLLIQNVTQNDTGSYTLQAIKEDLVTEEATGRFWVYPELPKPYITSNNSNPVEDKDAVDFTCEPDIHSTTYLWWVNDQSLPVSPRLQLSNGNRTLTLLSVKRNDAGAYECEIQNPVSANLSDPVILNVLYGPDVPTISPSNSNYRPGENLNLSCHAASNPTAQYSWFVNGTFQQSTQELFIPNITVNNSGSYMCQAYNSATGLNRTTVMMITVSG

B1: TPP-3821 (antibody, human IgG2, kappa, V domains shown)
VH: QVTLRESGPALVKPTQTLTLTCTFSGFSLSTYGIGVGWIRQPPGKALEWLAHIWWNDNKYYSTSLKTRLTISKDTSKNQVVLTMTNMDPVDTATYYCARISLPYFDYWGQGTLVTVSS
VL: DIQLTQSPSFLSASVGDRVTITCKASQNVGTAVAWYQQKPGKAPKLLIYSASNRYTGVPSRFSGSGSGTEFTLTISSLQPEDFATYYCQQYNNYPLTFGGGTKVEIKR
notes: humanized from TPP-3187, human IgG2; also called 3187HU2-hIgG2Kappa
B2: TPP-3310 (antibody, human IgG2, kappa)
heavy: QVTLRESGPALVKPTQTLTLTCTFSGFSLSTYGIGVGWIRQPPGKALEWLAHIWWNDNKYYSTSLKTRLTISKDTSKNQVVLTMTNMDPVDTATYYCARISLPYFDYWGQGTTLTVSSASTKGPSVFPLAPCSRSTSESTAALGCLVKDYFPEPVTVSWNSGALTSGVHTFPAVLQSSGLYSLSSVVTVPSSNFGTQTYTCNVDHKPSNTKVDKTVERKCCVECPPCPAPPVAGPSVFLFPPKPKDTLMISRTPEVTCVVVDVSHEDPEVQFNWYVDGVEVHNAKTKPREEQFNSTFRVVSVLTVVHQDWLNGKEYKCKVSNKGLPAPIEKTISKTKGQPREPQVYTLPPSREEMTKNQVSLTCLVKGFYPSDIAVEWESNGQPENNYKTTPPMLDSDGSFFLYSKLTVDKSRWQQGNVFSCSVMHEALHNHYTQKSLSLSPG
light: DIQLTQSPSFLSASVGDRVTITCKASQNVGTAVAWYQQKPGKAPKLLIYSASNRYTGVPSRFSGSGSGTEFTLTISSLQPEDFATYYCQQYSSYPLTFGGGTKVEIKRTVAAPSVFIFPPSDEQLKSGTASVVCLLNNFYPREAKVQWKVDNALQSGNSQESVTEQDSKDSTYSLSSTLTLSKADYEKHKVYACEVTHQGLSSPVTKSFNRGEC
notes: humanized from TPP-2971, human IgG2; also called TPP-2971HU1-hIgG2Kappa
B3: TPP-3820 (antibody, human IgG2, kappa, V domains shown)
VH: B1 VH with S30T, A46G
VL: B1 VL
notes: humanized from TPP-3187, human IgG2; also called 3187HU1-hIgG2Kappa
B4: TPP-3707 (antibody, human IgG2, kappa, V domains shown)
VH: EVQLVESGGGLVQPGGSLRLSCAASGFTFSLYQMHWVRQAPGKGLEWVSWISFSGGNTGYADSVKGRFTISRDNSKNTLYLQMNSLRAEDTAVYYCARATGYSSPWYLDPWGQGTLVTVSS
VL: DIQMTQSPSSLSASVGDRVTITCQASHEIDNYLNWYQQKPGKAPKLLIYDAYWSKTGVPSRFSGSGSGTDFTLTISSLQPEDIATYYCQGYDDLSVTFGGGTKVDIKR
notes: also called 090E-M007-A09-Mat2-hIgG2-hIgG2Kappa
B5: TPP-3714 (antibody, human IgG2, kappa)
heavy: B2 heavy with T113L, L114V
light: B2 light
notes: humanized from TPP-2971, human IgG2; also called TPP-2971HU2-hIgG2Kappa
B6: TPP-3705 (antibody, human IgG2, kappa, V domains shown)
VH: B4 VH
VL: B4 VL with S54L
notes: also called 090E-M007-A09-Mat1-hIgG2-hIgG2Kappa

What follows are binders tested against T1, human CEACAM19, full-length, on … (assay: FACS, transfected HeLa cells).
Outline: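 Antibody binding to transfected HeLa cells was measured by FACS on a Canto II or FACS Array instrument. For half maximal binding (EC₅₀), primary antibodies were titrated from 0.1 nM to 100 nM. Median fluorescence intensity was plotted against log concentration, and curves were fitted in Graph Pad prism. Cells had been released with EDTA dissociation buffer and stained at 4° C.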
B1: no binding (tested: 5 µg/ml).
B2: no binding (tested: 5 µg/ml).
B3: no binding (tested: 5 µg/ml).
B4: no binding (tested: 5 µg/ml).
B5: no binding (tested: 5 µg/ml).

These binders were tested against T2, human CEACAM6, extracellular (mature …) (assay: ELISA, antibody captured, biotinylated antigen titrated).
Method: (§1) The binding characteristics of these antibodies were also determined by a binding ELISA (monovalent binding, biotinylated CEACAM proteins): A 1:440 dilution of an anti-human IgG (Sigma, 12136) in Coating buffer (Candor) was used to coat black 384-well Maxisorp plates (Nunc) for 1 hour at 37° C. After one wash with PBS/0.05% Tween-20 the plates were blocked with 100% SmartBlock (Candor) for 1 hour at 37° C. After three washes, 2 μg/ml of the relevant antibodies were added to the plate in PBS/0.05% Tween-20/10% SmartBlock. The plates were incubated for 1 hour at room temperature. After three washes dilution series of the relevant biotinylated CEACAM proteins in PBS/0.05% Tween-20/10% SmartBlock were added and the plates were incubated for one hour at room temperature. After three washes 1 μg/ml of Streptavidin-Peroxidase (Sigma, S5512) in PBS/0.05% Tween-20/10% SmartBlock was added and the plates were incubated for 30 minutes at room temperature. After three washes, the plates were developed with Amplex Red (Life Technologies) and fluorescence was read at an emission wavelength of 590 nm. GraphPad Prism 6.0 software was used to calculate EC₅₀ values using four-parameter non-linear curve fit.
With B2 the EC50 was 0.09 nM.
With B6 the EC50 was 0.18 nM and the “fold better binding than to human CEACAM3 (ratio of EC50 values)” value was roughly 620 fold.
In the case of B4, the EC50 is reported as 0.19 nM and the “fold better binding than to human CEACAM3 (ratio of EC50 values)” value is reported as roughly 730 fold.
B5 gave an EC50 of 0.09 nM.

Molecular target: T3, Macaca fascicularis CEACAM6, …
Assay: as above
Method: as §1
For B2, the EC50 was 0.07 nM.
B6 gave an EC50 of 0.12 nM.
B4 gave an EC50 of 0.11 nM.
Binder B5 has an EC50 of 0.07 nM.
